Assay results: patent US20260242478A1 (published 2026)
Where no end group is shown, it is not given here.

Columns and labels:
[1] = molecular target: T1, Anti-CD28 Fab (SEQ ID NOs: 696, 697); test: phage binding ELISA; biotinylated Fab on neutravidin plate, anti-M13 HRP detection
T1 construct: In the phage ELISA the Fab was biotinylated and captured on neutravidin coated plates
T1 sequence (VH, as listed by the source, chain 1 of 2): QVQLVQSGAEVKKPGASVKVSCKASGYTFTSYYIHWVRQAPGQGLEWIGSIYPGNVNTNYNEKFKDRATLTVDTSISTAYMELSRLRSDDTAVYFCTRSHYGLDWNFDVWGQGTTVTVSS
T1 sequence (VL, as listed by the source, chain 2 of 2): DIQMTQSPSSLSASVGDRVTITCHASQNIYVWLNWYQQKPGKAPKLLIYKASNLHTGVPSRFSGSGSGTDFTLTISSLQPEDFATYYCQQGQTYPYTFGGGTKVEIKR
Protocol: (§1) Clonal phage were harvested as crude supematants and screened via standard ELISAs. […] Prior to the addition of clonal phage, wells were incubated with blocking buffer and CD28 antigen or blocking buffer alone. Without washing or aspirating, clonal phage supematants were then added to the wells and incubated for a short time. Wells were then washed followed by detection of bound phage using a horse radish conjugated anti-M13 antibody.

[2] = molecular target: T1, Anti-CD28 Fab (SEQ ID NOs: 696, 697); test: phage binding ELISA on captured Fab; CD28 antigen as competitor
Protocol: as §1

[3] = molecular target: T2, Anti-CD28 Fab (SEQ ID NOs: 696, 697); test: phage binding ELISA on plate-captured anti-CD28 Fab pre-incubated with CD28 antigen (competitor: CD28), anti-M13 HRP detection
T2 construct: In the phage ELISA the Fab was biotinylated and captured on neutravidin coated plates
T2 sequence (VH, as listed by the source, chain 1 of 2): as the sequence (VH, as listed by the source, chain 1 of 2) above
T2 sequence (VL, as listed by the source, chain 2 of 2): as the sequence (VL, as listed by the source, chain 2 of 2) above
Protocol: as §1

[4] = molecular target: T2, Anti-CD28 Fab (SEQ ID NOs: 696, 697); test: phage binding ELISA; biotinylated anti-CD28 Fab on neutravidin plate, clonal phage supernatant, anti-M13 HRP detection;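 further: wells pretreated with blocking buffer, either plus or minus CD28 antigen, then given crude phage supernatant briefly without washing in between, then washed before anti-M13 HRP readout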
Protocol: as §1

[5] = molecular target: T3, Anti-CD28 Fab (SEQ ID NOs: 696, 697); test: phage binding ELISA on captured Fab; wells pre-incubated with CD28 antigen as competitor
T3 construct: In the phage ELISA the Fab was biotinylated and captured on neutravidin coated plates
T3 sequence (VH, as listed by the source, chain 1 of 2): as the sequence (VH, as listed by the source, chain 1 of 2) above
T3 sequence (VL, as listed by the source, chain 2 of 2): as the sequence (VL, as listed by the source, chain 2 of 2) above
Protocol: as §1

[6] = molecular target: T3, Anti-CD28 Fab (SEQ ID NOs: 696, 697); test: phage binding ELISA; biotinylated Fab on neutravidin plate, clonal phage supernatant, anti-M13 HRP detection
Protocol: Clonal phage were harvested as crude supematants and screened via standard ELISAs. […] Prior to the addition of clonal phage, wells were incubated with blocking buffer and CD28 antigen or blocking buffer alone. Without washing or aspirating, clonal phage supematants were then added to the wells and incubated for a short time. Wells were then washed followed by detection of bound phage using a horse radish conjugated anti-M13 antibody. Clonal phage of interest were then sent for sequence analysis.

[7] = molecular target: T4, Anti-PSMA Fab (SEQ ID NOs: 19, 20); test: phage binding ELISA; biotinylated anti-PSMA Fab on neutravidin plate, wells pre-incubated with PSMA antigen as competitor, anti-M13-HRP detection
T4 construct: Used biotinylated and captured on neutravidin coated plates; also called 006 PSMA Fab
Protocol: (§2) Clonal phage were harvested as crude supernatants and screened via standard ELISAs. […] Prior to the addition of clonal phage. wells were incubated with blocking buffer and PSMA antigen or blocking buffer alone. Without washing or aspirating, clonal phage supernatants were then added to the wells and incubated for a short time. Wells were then washed followed by detection of bound phage using a horse radish conjugated anti-M13 antibody.

[8] = molecular target: T4, Anti-PSMA Fab (SEQ ID NOs: 19, 20); test: phage binding ELISA; biotinylated anti-PSMA Fab on neutravidin plate, clonal phage supernatant, anti-M13-HRP detection
Protocol: as §2

| Binder | Anti-CD28 Fab (SEQ ID NOs: 696, 697) signal [1] | Anti-CD28 Fab signal in the presence of CD28 [2] | Phage binding ELISA, Anti-CD28 Fab signal in the presence of CD28 [3] | Phage binding ELISA, Anti-CD28 Fab signal [4] | also measured |
| --- | --- | --- | --- | --- | --- |
| TCSAGATYKWPTCL (tested as crude phage supernatant) [Phage-1669] | 0.97 | 0.07 |  |  |  |
| PCSAGATYAWPYCL [Phage-1696] |  |  | 0.09 | 0.71 |  |
| TCSAGATYTWPVCF [Phage-1648] |  |  |  |  | Anti-CD28 Fab signal in the presence of CD28 [5]: 0.06; Anti-CD28 Fab (SEQ ID NOs: 696, 697) signal [6]: 1.13 |
| TCAAGATYSWPSCF [Phage-1651] |  |  |  |  | Anti-CD28 Fab signal in the presence of CD28 [5]: 0.07; Anti-CD28 Fab (SEQ ID NOs: 696, 697) signal [6]: 1.1 |
| SCAAGAHWSWPACL (tested as crude phage supernatant) [Phage-1670] | 0.97 | 0.06 |  |  |  |
| TCSAGATYGWPACF [Phage-1691] |  |  | 0.07 | 0.76 |  |
| SCAAGFHYEWPQCF [Phage-1658] |  |  |  |  | Anti-CD28 Fab signal in the presence of CD28 [5]: 0.06; Anti-CD28 Fab (SEQ ID NOs: 696, 697) signal [6]: 1.06 |
| WCSAVFSYQWPVCL [Phage-1701] |  |  | 0.06 | 0.61 |  |
| TCSAGATYKWPMCF [Phage-1690] |  |  | 0.07 | 0.77 |  |
| TCSAGAQWEWPACL [Phage-1700] |  |  | 0.08 | 0.67 |  |
| VCAAGAAYPWPACL (tested as crude phage supernatant) [Phage-1673] | 0.93 | 0.07 |  |  |  |
| SCAAGAAYAWPWCL [Phage-1660] |  |  |  |  | Anti-CD28 Fab signal in the presence of CD28 [5]: 0.07; Anti-CD28 Fab (SEQ ID NOs: 696, 697) signal [6]: 1.05 |
| SCSAGASYAWPMCI [Phage-1702] |  |  | 0.06 | 0.59 |  |
| WCSEVFSYPWPACL (tested as crude phage supernatant) [Phage-1665] | 0.99 | 0.06 |  |  |  |
| TCSAGATYSWPLCF [Phage-1650] |  |  |  |  | Anti-CD28 Fab signal in the presence of CD28 [5]: 0.09; Anti-CD28 Fab (SEQ ID NOs: 696, 697) signal [6]: 1.12 |
| TCAAGATWTWPTCM [Phage-1655] |  |  |  |  | Anti-CD28 Fab signal in the presence of CD28 [5]: 0.06; Anti-CD28 Fab (SEQ ID NOs: 696, 697) signal [6]: 1.07 |
| SCAAVFSFNWPECF (tested as crude phage supernatant) [Phage-1663] | 1.01 | 0.07 |  |  |  |
| TCAAGAVWQWPTCF [Phage-1695] |  |  | 0.06 | 0.71 |  |
| ICAAGAGWPWPWCL [Phage-1692] |  |  | 0.1 | 0.75 |  |
| PCAAGAQWSWPMCL [Phage-1656] |  |  |  |  | Anti-CD28 Fab signal in the presence of CD28 [5]: 0.09; Anti-CD28 Fab (SEQ ID NOs: 696, 697) signal [6]: 1.07 |
| LMKWCTPRWMCAAE (cysteine pairing not given here; also: fused to phage pIII (clonal phage display), not shown: pIII coat protein of the bacteriophage to which the peptide is fused) [Phage-1707] |  |  |  |  | Anti-PSMA Fab signal in the presence of PSMA [7]: 0.232; Anti-PSMA Fab (SEQ ID NOs: 19, 20) signal [8]: 1.04 |
| LCDQFFHYNWPACL (tested as crude phage supernatant) [Phage-1662] | 1.04 | 0.05 |  |  |  |

| Binder | Anti-CD28 Fab (SEQ ID NOs: 696, 697) signal [1] | Anti-CD28 Fab signal in the presence of CD28 [2] | Phage binding ELISA, Anti-CD28 Fab signal in the presence of CD28 [3] | Phage binding ELISA, Anti-CD28 Fab signal [4] | also measured |
| --- | --- | --- | --- | --- | --- |
| TCAAGAAYTWPHCF [Phage-1699] |  |  | 0.11 | 0.69 |  |
| LCAAVFAYTWPMCF (tested as crude phage supernatant) [Phage-1667] | 0.98 | 0.07 |  |  |  |
| MCTAGFSFNWPECL (tested as crude phage supernatant) [Phage-1661] | 1.05 | 0.07 |  |  |  |
| TCSAGAHYEWPKCL [Phage-1649] |  |  |  |  | Anti-CD28 Fab signal in the presence of CD28 [5]: 0.07; Anti-CD28 Fab (SEQ ID NOs: 696, 697) signal [6]: 1.12 |
| TCAAGAQLEWPWCF [Phage-1697] |  |  | 0.07 | 0.7 |  |
| TCAAGATYDWPSCL [Phage-1694] |  |  | 0.08 | 0.71 |  |
| PCAAGAHYVWPVCF (tested as crude phage supernatant) [Phage-1668] | 0.97 | 0.06 |  |  |  |
| SCAAGSTWAWPACL [Phage-1657] |  |  |  |  | Anti-CD28 Fab signal in the presence of CD28 [5]: 0.07; Anti-CD28 Fab (SEQ ID NOs: 696, 697) signal [6]: 1.07 |
| TCSAGAHYPWPMCL (tested as crude phage supernatant) [Phage-1674] | 0.93 | 0.06 |  |  |  |
| IAVLCQPNWMCAGF (cysteine pairing not given here; also: fused to phage pIII (clonal phage display), also called Peptide-180; not shown: pIII coat protein of the bacteriophage to which the peptide is fused) [Phage-1708] |  |  |  |  | Anti-PSMA Fab signal in the presence of PSMA [7]: 0.077; Anti-PSMA Fab (SEQ ID NOs: 19, 20) signal [8]: 0.997 |
| SCTAVFSYALSPCF (tested as crude phage supernatant) [Phage-1666] | 0.99 | 0.05 |  |  |  |
| SCTAGFRIHWPMCF [Phage-1659] |  |  |  |  | Anti-CD28 Fab signal in the presence of CD28 [5]: 0.12; Anti-CD28 Fab (SEQ ID NOs: 696, 697) signal [6]: 1.06 |
| TCAAGAHYEWPQCF [Phage-1653] |  |  |  |  | Anti-CD28 Fab signal in the presence of CD28 [5]: 0.06; Anti-CD28 Fab (SEQ ID NOs: 696, 697) signal [6]: 1.08 |
| GCAAGAEYNWPTCL [Phage-1698] |  |  | 0.64 | 0.69 |  |
| TCSAGASYSWPYCM (tested as crude phage supernatant) [Phage-1664] | 1 | 0.07 |  |  |  |
| MCAAGAMYNWPLCL (tested as crude phage supernatant) [Phage-1671] | 0.95 | 0.09 |  |  |  |
| TCAAGATYNWPWCF [Phage-1654] |  |  |  |  | Anti-CD28 Fab signal in the presence of CD28 [5]: 0.07; Anti-CD28 Fab (SEQ ID NOs: 696, 697) signal [6]: 1.07 |
| PELRCVPFWMCSFN (cysteine pairing not given here; also: fused to phage pIII (clonal phage display), not shown: pIII coat protein of the bacteriophage to which the peptide is fused) [Phage-1709] |  |  |  |  | Anti-PSMA Fab signal in the presence of PSMA [7]: 0.064; Anti-PSMA Fab (SEQ ID NOs: 19, 20) signal [8]: 0.622 |
| DCWWDSPYHWRVCL [Phage-1703] |  |  | 0.07 | 0.57 |  |
| TCAAGANYAWPVCL [Phage-1652] |  |  |  |  | Anti-CD28 Fab signal in the presence of CD28 [5]: 0.13; Anti-CD28 Fab (SEQ ID NOs: 696, 697) signal [6]: 1.09 |
| ECSAGAMWGWPACF [Phage-1693] |  |  | 0.09 | 0.73 |  |
| SCAAGASYSWPLCF (tested as crude phage supernatant) [Phage-1672] | 0.95 | 0.08 |  |  |  |
